Reference: PMC2064834 (The Journal of Cell Biology, 2007)
Values belong to the molecule of their own block, whether it stands above or below them.

Columns and labels:
Hs-laforin = target: T1, Hs-laforin (Homo sapiens, UniProt O95278); test: p-NPP hydrolysis, absorbance at […] nm; format: biochemical; conditions: pH 5.5; 37°C; 2 mM DTT; artificial substrate
T1 sequence (O95278 1-331): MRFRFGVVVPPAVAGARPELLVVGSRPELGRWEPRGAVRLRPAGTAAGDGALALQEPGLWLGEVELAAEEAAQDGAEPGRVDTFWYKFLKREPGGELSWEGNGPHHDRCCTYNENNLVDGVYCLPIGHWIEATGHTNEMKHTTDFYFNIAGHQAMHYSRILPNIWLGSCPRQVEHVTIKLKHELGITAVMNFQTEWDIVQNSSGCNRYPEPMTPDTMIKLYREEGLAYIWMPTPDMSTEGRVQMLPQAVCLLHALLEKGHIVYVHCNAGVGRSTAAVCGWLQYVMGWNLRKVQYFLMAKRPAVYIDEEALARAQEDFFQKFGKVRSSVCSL

purified protein = substrate: O=[N+]([O-])c1ccc(OP(=O)(O)O)cc1; test: purified protein; conditions: pH 6.0, 37°C, 2 mM DTT, artificial substrate

Km (Hs-laforin): 323 µM
Molecule: O=[N+]([O-])c1ccc(OP(=O)(O)O)cc1 [p-NPP]

B1: Δ52-SEX4 (Arabidopsis thaliana) (protein)
chain: AVSESKSSSEMSGVAKDEEKSDEYSQDMTQAMGAVLTYRHELGMNYNFIRPDLIVGSCLQTPEDVDKLRKIGVKTIFCLQQDPDLEYFGVDISSIQAYAKKYSDIQHIRCEIRDFDAFDLRMRLPAVVGTLYKAVKRNGGVTYVHCTAGMGRAPAVALTYMFWVQGYKLMEAHKLLMSKRSCFPKLDAIRNATIDILTGLKRKTVTLTLKDKGFSRVEISGLDIGWGQRIPLTLDKGTGFWILKRELPEGQFEYKYIIDGEWTHNEAEPFIGPNKDGHTNNYAKVVDDPTSVDGTTRERLSSEDPELLEEERSKLIQFLETCSEAEV
Km (purified protein): 410 µM
Vmax (purified protein): 2.41 µmol/min/mg
kcat (purified protein): 1.54 s⁻¹
kcat/Km (purified protein): 3756 M⁻¹ s⁻¹
